Data from patent publication US20190000969A1 (AbbVie / Abbott, published 2019).
Where a chain is given by its changes, count along the chain named.

T1: human UPK1B (hUPK1B) protein, full length, on the cell surface (human, UniProt O75841 1-260)
T1 sequence: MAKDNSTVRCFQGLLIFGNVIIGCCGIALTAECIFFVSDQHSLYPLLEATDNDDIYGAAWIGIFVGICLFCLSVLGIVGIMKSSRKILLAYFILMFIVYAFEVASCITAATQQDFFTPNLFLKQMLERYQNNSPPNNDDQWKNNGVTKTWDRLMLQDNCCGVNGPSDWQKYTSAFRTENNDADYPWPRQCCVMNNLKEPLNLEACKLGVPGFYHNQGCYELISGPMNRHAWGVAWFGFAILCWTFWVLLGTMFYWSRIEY

T2: hUPK1B(108-229)-Fc, second extracellular domain of human UPK1B fused to human IgG2 Fc (human, UniProt O75841 108-229)
T2 construct: Expressed behind an IgK signal peptide, which is not part of the secreted protein; also called hUPK1B-Fc; Fc-fusion human UPK1B protein; not shown: human IgG2 Fc protein
T2 sequence: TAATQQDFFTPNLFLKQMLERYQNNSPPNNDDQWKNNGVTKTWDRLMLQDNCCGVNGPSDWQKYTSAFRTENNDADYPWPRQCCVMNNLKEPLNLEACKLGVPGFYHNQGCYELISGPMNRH

B1: SC115.84 (antibody, IgG2b, V domains shown)
VH: QVQLQQSGAELVKPGASVKISCETSGYTFSSYWMNWVKQRPGKGLEWIGQIDPGDGDTNYNGKFRGKATLTADKSSSTAYMQLNTLTSEDSAVYFCARSRQLRLDYWGQGTTLTVSS
VL: QIVLTQSPAIMSASPGERVTMTCSASSSVSSFYLYWYQQKSGSSPKVWIYSTSNLASGVPTRFSGSGSGTSYSLTINSMEAEDAATYYCQQWSSNPLTFGAGTKLELK
B2: SC115.90 (antibody, IgG2a, V domains shown)
VH: DVKLVESGGGFVRLGGSLKLSCAASGFTFNNYAMSWVRQTPEKRLEWVAIISRGGTKNYYPDSVKGRFTISRDNAKNTLYLQMSSLRSEDTAMYYCARLYYDDYEGYMDYWGQGTSVTVSS
VL: DIVLTQSPASLAVSLGQRATISCRASKSVSTSGYSYMHWYQQKPGQPPKLLIYLASNLESGVPARFSGSGSGTDFTLNIHPVEEEDAATYYCQHSRELPLTFGAGTRLELK
B3: SC115.26 (antibody, V domains shown)
VH: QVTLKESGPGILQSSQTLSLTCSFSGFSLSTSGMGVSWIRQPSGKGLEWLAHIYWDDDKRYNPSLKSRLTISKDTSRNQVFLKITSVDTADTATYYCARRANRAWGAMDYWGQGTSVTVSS
VL: DIVMSQSPSSLAVSVGEKVTMSCKSSQSLLYSSNQKNFLAWYQQKPGQSPKLLIYWASTRESGVPDRFTGSGSGTDFTLTISSVKAEDLAIYYCQQYYYYPYTFGGGTKLEIK
B4: SC115.36 (antibody, IgG1, V domains shown)
VH: EVQLQQSGTVVARPGASVKMSCKASGYSFTSYWMHWIKQRPGQGLDWIGSIYPGHSDATYNQRFKGKAKLTAVTSANTAYMELSSLTNEDSAVYYCSRSDGYYRGMAMDYWGQGTSVTVSS
VL: DIVLTQSPASLAVSLGQRATISCRASESVDGYGNSFMHWYRQKPGQPPKLLIYRASNLESGIPARFSGSGSRTDFALTINPVEADDVATYYCQQSYGDPRTFGGGTNLEIK
B5: SC115.94 (antibody, IgG2a, V domains shown)
VH: QVQLQLSGAELVKPGASVKISCKASGYAFSSYWMNWVKQRPGKGLEWIGQIYPGDADTHYNGKFKGKATLTADKSSSTAYMQLSSLTSEDSAVYFCARLKLGRFDYWGQGTTLTVSS
VL: QLVLTQSSSASFSLGASAKLTCTLSSQHSTYTIEWYQQQPLKPPKYVMELKKDGSHNTGDGIPDRFSGSSSGADRYLSISNIQPEDEAIYICGVGYTIKEQFVYVFGGGTKVTVL
B6: SC115.32 (antibody, IgG1, V domains shown)
VH: QVQLQQPGAELVRPGSSVKLSCKASGYTFNSYWMHWVKQRPIKGLEWIGNIDPSDGETYYNQAFKDKATLTVDKSSSTAYMQLSRLTSEDSAVYYCARRGTAQATTWLGYWGQGTLVTVSA
VL: DIVMTQSPSSLTVTAGEKVTMSCKSSQSLLNSGNQKNYLTWYQQKPGQPPKLLIYWASTRESGVPDRFTGSGSGTDFTLTISSVQAEDLAVYYCQNDYSYPFTFGSGTKLEIK
B7: SC115.46 (antibody, V domains shown)
VH: QVQLQQSGPQLVRPGASVKISCKASGYSFTTSWMHWMKQRPGQGLEWIGMIDPSDSETGLNQIFRDKATLTVDKYSSTAYMQLSSPTSEDSAVYYCARRGRFSYDYGGFAYWGQGTLVTVSA
VL: B6 VL with P49T, Y100N, S106G
B8: SC115.4 (antibody, IgG2a, V domains shown)
VH: DVKLVESGGGLVKLGGSLKLSCAASGFTFSSYPMSWVRQTPEMRLEWVATISSGGGITYYPDSVKGRFTISRDNAKNTLSLQMNSLRSEDTAMYYCSRLYYSDYEGYMDYWGQGTSVTVSS
VL: B2 VL with A88S, R107K
B9: SC115.65 (antibody, IgG2a, V domains shown)
VH: EVQLQQSGPELVKPGASVKISCKASGYSFTGYFMNWVMQSHGKSLEWIGRINPYNGDTFYNQKFKGKATLTVDKSSNTAHMELRSLASEDSGVYYCAGHNNYGVSWGQGTTLTVSS
VL: DVLMTQTPLSLPVSLGDQASISCRSSQIIVHSNGNTYLEWYLQKPGQSPKLLIYKVSNRFSGVPDRFSGSGSGTDFTLKISRVEAEDLGVYYCFQGSHLPYTFGGGTKLEIK
B10: SC115.13 (antibody, IgG1, V domains shown)
VH: QILLVQSGPELKKPGETVKISCKASGYTFTNYGMNWVKQAPGKGLKWMGWINTKTGVPTYPDDFKGRFAFSLETSASTAYLQISNLKDEDTATYFCTRGESFFSFAFWGQGTLVAVSA
VL: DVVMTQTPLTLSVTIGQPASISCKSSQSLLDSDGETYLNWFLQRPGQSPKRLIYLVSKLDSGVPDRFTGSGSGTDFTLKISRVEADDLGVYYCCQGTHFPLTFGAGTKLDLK
B11: SC115.52 (antibody, IgG1, V domains shown)
VH: B10 VH with Y32L, K54Y, V57D, P61V, D88N, S101K, F103Y, F107Y, A115T
VL: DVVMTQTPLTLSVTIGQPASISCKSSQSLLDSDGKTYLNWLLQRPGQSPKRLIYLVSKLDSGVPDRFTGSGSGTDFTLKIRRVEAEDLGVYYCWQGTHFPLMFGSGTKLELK
B12: SC115.1 (antibody, IgG1, V domains shown)
VH: QVLLQQSGPQLVRPGASVKISCKASGYSFTSYWIHWVKQRPGQGLEWIGMIDPSDSETSFNQKFKDKATLTVDKSSSTAYMQLSSPTSEDSAVYYCARSYYASRFDYWGQGATLTVSS
VL: DIVMTQSPSSLAMSVGQKVTMNCKSSQSLLNSNNQKNYLAWYQQKPGQSPKLLVYFASTRESGVPDRFIGSGSGTDFTLTITSVQAEDLADYFCLQHYGTPLTFGAGTKLELK
B13: SC115.48 (antibody, V domains shown)
VH: EVQLVETGGGLVQPKGSLKLSCAASGLSFNTYAMNWVRQAPGKGLEWVARIRSKSNNYATYYADSVKDRFTISRDDSQSMLYLQMNNLKTEDTAMYYCVTSLFDYWGQGTTLTVSS
VL: B5 VL with L4V, N57S, I82M, Y96E, T97A
B14: SC115.51 (antibody, V domains shown)
VH: QVQLKQSGPGLVQPSQSLSITCTVSGFSLTNYGIHWVRQSPGKGLEWLGVIWRGGSTDYNAGFMSRLTITKDNSKSQVFFKMNSLQGDDTAIYYCAKNTGRGALDYWGQGTTLTVSS
VL: DIVMTQSPSSLAVTAGEKVTMRCKSSQSLLWSVNQNNYLSWYQQKQGQPPKLLISGASIRESWVPDRFTGSGSGTDFTLTISNVHAEDLAVYYCQHNHGSFLPYTFGGGTKLEIK
B15: SC115.18 (antibody, V domains shown)
VH: QVQLQQPGAELVRPGSSVKLSCKASGYTFTSYWMHWVKQRPMQGLEWIGNIDPSDSEIYYNQKFKDKATLTVDKSSGTAYMQLSSLTSEDSAVYYCARRSGSRDYYGMDDWGQGTSVTVSS
VL: B6 VL with S22R, Y55S, E61D, G74R, T78I, F102L, S106A, I112L
B16: SC115.9 (antibody, IgG2a, V domains shown)
VH: QVQLQQPGAELVKPGASVKMSCKASGYTFTSNWMHWVKQRPGQGLEWIGVIDPSDTYISYNQKFKGKATLTVDTSSSTAYMQLSSLTSEDSAVYYCTRRDSGWYFDVWGAGTTVTVSS
VL: B6 VL with F102L, S106A, I112L
B17: SC115.7 (antibody, V domains shown)
VH: EVQLQQSGAELVRPGASVKLSCTASGFNIKDSFIHWVKKRPEEGLEWIGWIDPEDGETKYAPKFQDKATITADTSSNTAYLQLSSLTSEDTAIYYCARRERFYGIYYALDYWGQGTSVTVSS
VL: B6 VL with P46L, Y100N
B18: SC115.19 (antibody, IgG2a, V domains shown)
VH: QITLKESGPGILQPSQTLSLTCSFSGFSLSTSGMGVGWIRQPSGKGLEWLANIWWNDDQYYNPPLKSRLTVSKDTSKTQVFLKIAHVDTADTATYYCARIYSGNYGAMDYWGQGTSVTVSS
VL: DIVMTQAAFSNPVTLGTSASISCRSSKSLLHSNGITYLYWYLQKPGQSPQLLIYQMSSLASGVPDRFSSSGSGTDFTLRISRVEAEDVGVYYCAQSLELPYTFGGGTKLEIK
B19: chimSC115.9 (Fab, V domains shown)
VH: B16 VH
VL: B6 VL with F102L, S106A, I112L
notes: also called Fab fragment (papain-digested) of chimeric SC115.9; parental chimeric antibody
B20: chimSC115.18 (Fab, V domains shown)
VH: B15 VH
VL: B6 VL with S22R, Y55S, E61D, G74R, T78I, F102L, S106A, I112L
notes: also called Fab fragment (papain-digested) of chimeric SC115.18; parental chimeric antibody

Molecular target: T1, human UPK1B (hUPK1B) protein, full …
Test: cell-based or functional assay

Row | Binder | IVK, HxUPK1B, 250pM, fz, % live [cont.]
1 | B1 | 25.6 % live
2 | B2 | 104 % live
3 | B3 | 105 % live
4 | B4 | 17.2 % live
5 | B5 | 55.7 % live
6 | B6 | 28.2 % live
7 | B7 | 19.3 % live

Molecular target: T1, human UPK1B (hUPK1B) protein, full …
Test: cell-based or functional assay
Remark: another data set of the same source

Row | Binder | IVK, HxUPK1B, 250pM, fz, % live
8 | B8 | 89 % live
9 | B9 | 98.3 % live
10 | B10 | 99.4 % live
11 | B11 | 103 % live
12 | B12 | 23.1 % live
13 | B13 | 22.2 % live
14 | B14 | 100 % live
15 | B15 | 22.9 % live
16 | B16 | 17.6 % live
17 | B17 | 48.7 % live
18 | B18 | 20.4 % live

Molecular target: T2, hUPK1B(108-229)-Fc, second …
Test: SPR, Biacore T200; human UPK1B Fc-fusion captured on anti-human chip, papain-digested Fab as analyte, 1:1 Langmuir fit
Experimental: The kinetic characteristics and affinities of the anti-UPK1B antibodies for human UPK1B protein was determined by surface plasmon resonance using a Biacore T200 (GE Healthcare). An anti-human antibody capture kit was used to immobilize anti-human antibodies on a CM5 biosensor chip. Then, in independent flow cells, CHO expressed Fc-fusion human UPK1B protein was immobilized. Prior to each anti-UPK1B antibody Fab fragment injection cycle, the human Fc-fusion protein was captured at a concentration of 1 μg/mL on the surface with a contact time of 12 seconds and a flow rate of 20 μL/min. […] The CM5 anti-human chip surface was regenerated with 1 min. contact time of 10 mM Glycine, pH 1.7 at 10 μL/min. following each cycle.
The data was processed by subtracting a control irrelevant human Fc-fusion protein surface response from the specific human UPK1B Fc-fusion protein surface response and data was truncated to the association and dissociation phase. The resulting response curves were used to evaluate the kinetic characteristics of the antibodies for experiments done on the Biacore T200. Association and dissociation data was fit with a 1:1 langmuir binding model using the Biacore T200 Evaluation Software (GE Healthcare).

Row | Binder | Kd
19 | B19 | 6.4 nM
20 | B20 | 3.6 nM
